B1: minF1; a variant is named by its letters at N, in order (parent)
chain: GAGACCGCAACTGAAAAGTTGTTNNNNAANNNNGGNTNNATTTCTGCACGTAGAAGCAAAAGGC

In the data set the parent is B1. The data set is described as follows: fraction ligated after 30 min (ligated reads / total reads); higher = more ligase activity. The conditions noted are these: with F1*subA RNA substrate (template-directed ligation), 42 °C. As to the method: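 Chip-synthesised pool of minF1 ligase ribozyme variants (single and double substitutions, single to quadruple deletions, bulge and P2 designed variants) was transcribed with T7 and reacted as a pool with excess substrate F1*subA for 30 min at 42 C in 50 mM EPPS pH 8.5, 25 mM MgCl2. Ligated and unligated RNAs were separated by PAGE, barcoded by RT and deep sequenced; fraction ligated = ligated reads / total reads, relative activity = FL / FL of wild-type minF1 (0.76); sequencing FL correlated with PAGE (R2 = 0.98). Sequences are the DNA template of the ribozyme.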
With GAGACCGCAACTGAAAAGTTGTTATCAGAAGTGGGTTGAATTTCTGCACGTAGAAGCAAAAGGC, the fraction ligated came to 0.00275.
Regarding GAGACCGCAACTGAAAAGTTGTATCAGAATGGTGGTTGAATTTCTGCACGTAGAAGCAAAAGGC, the fraction ligated was determined as 0.00216.
The same measure for GAGACCGCAACTGAAAAGTTGTTATGAATGGATGGGTTAATTTCTGCACGTAGAAGCAAAAGGC: 0.00295; for GAGACCGCAACTGAAAAGTTGTACAGAAATGGGGGTTGAATTTCTGCACGTAGAAGCAAAAGGC: 0.00475; for GAGACCGCAACTGAAAAGTTGTTATAGAAATGAGGGTTAATTTCTGCACGTAGAAGCAAAAGGC: 0.00311.
In the case of GAGACCGCAACTGAAAAGTTGTAAGAAATGGTGGGTTGAATTTCTGCACGTAGAAGCAAAAGGC, the fraction ligated amounted to 0.00188.
Consider GAGACCGCAACTGAAAAGTTGTTATCGAAATGGAGGGTTATTTCTGCACGTAGAAGCAAAAGGC, for which the fraction ligated was determined as 0.00243.
In the case of GAGACCGCAACTGAAAAGTTGTTACGAAATGGAGGGTTAATTTCTGCACGTAGAAGCAAAAGGC it was 0.00344; in that of GAGACCGCAACTGAAAAGTTGTTTCGAAATGGATGGGTTATTTCTGCACGTAGAAGCAAAAGGC, 0.00201; in that of GAGACCGCAACTGAAAAGTTGTTACAGTGGATGGGTTGAATTTCTGCACGTAGAAGCAAAAGGC, 0.0031.
The same measure for GAGACCGCAACTGAAAAGTTGTATCAGAATGATGGTTGAATTTCTGCACGTAGAAGCAAAAGGC: 0.00266; for GAGACCGCAACTGAAAAGTTGTTATCAAAATGGAGGGTTGTTTCTGCACGTAGAAGCAAAAGGC: 0.00153.
In the case of GAGACCGCAACTGAAAAGTTGTTTCAAAATGGTGGTTGAATTTCTGCACGTAGAAGCAAAAGGC it was 0.00179; in that of GAGACCGCAACTGAAAAGTTGTACAGAAAGGTGGGTTGAATTTCTGCACGTAGAAGCAAAAGGC, 0.00265; in that of GAGACCGCAACTGAAAAGTTGTTACAAAATATGGGTTGAATTTCTGCACGTAGAAGCAAAAGGC, 0.00334.
For the variant GAGACCGCAACTGAAAAGTTGTTTAGAAATGGTGGTTGAATTTCTGCACGTAGAAGCAAAAGGC, the fraction ligated was found to be 0.00065.
For the variant GAGACCGCAACTGAAAAGTTGTATAGAATGGATGGGTTGATTTCTGCACGTAGAAGCAAAAGGC, the fraction ligated amounted to 0.00945.
As to GAGACCGCAACTGAAAAGTTGTTATGATGGATGGGTTGAATTTCTGCACGTAGAAGCAAAAGGC, the fraction ligated amounted to 0.016.
The same measure for GAGACCGCAACTGAAAAGTTGTTATCAGATGGATGGTTAATTTCTGCACGTAGAAGCAAAAGGC: 0.00586; for GAGACCGCAACTGAAAAGTTGTTATCGAAAGGAGGTTGAATTTCTGCACGTAGAAGCAAAAGGC: 0.00383.
Consider GAGACCGCAACTGAAAAGTTGTTACAAAATGGGGGTTGAATTTCTGCACGTAGAAGCAAAAGGC, for which the fraction ligated came to 0.00353.
The same measure for GAGACCGCAACTGAAAAGTTGTATCAGAAGATGGGTTGAATTTCTGCACGTAGAAGCAAAAGGC: 0.00221; for GAGACCGCAACTGAAAAGTTGTTCAGAAAGGTGGGTTGAATTTCTGCACGTAGAAGCAAAAGGC: 0.00486; for GAGACCGCAACTGAAAAGTTGTTACAAAATGATGGTTGAATTTCTGCACGTAGAAGCAAAAGGC: 0.00348.
On to GAGACCGCAACTGAAAAGTTGTTATCGAAATGGAGGTTAATTTCTGCACGTAGAAGCAAAAGGC, for which the fraction ligated was determined as 0.00165.
The same measure for GAGACCGCAACTGAAAAGTTGTTATCGATGGATGGGTTAATTTCTGCACGTAGAAGCAAAAGGC: 0.00281; for GAGACCGCAACTGAAAAGTTGTTATCAAATGATGGGTTAATTTCTGCACGTAGAAGCAAAAGGC: 0.00345; for GAGACCGCAACTGAAAAGTTGTTTGAAATGGATGGGTTAATTTCTGCACGTAGAAGCAAAAGGC: 0.00266.
The same measure for GAGACCGCAACTGAAAAGTTGTTACAGAATGGATGGGTTGTTTCTGCACGTAGAAGCAAAAGGC: 0.00141.
Turning to GAGACCGCAACTGAAAAGTTGTTATCGAATGGTGGGTTGATTTCTGCACGTAGAAGCAAAAGGC, the fraction ligated came out at 0.00802.
In the case of GAGACCGCAACTGAAAAGTTGTTATGAATGGAGGGTTGAATTTCTGCACGTAGAAGCAAAAGGC it was 0.0018; in that of GAGACCGCAACTGAAAAGTTGTTAAAAATGGAGGGTTGAATTTCTGCACGTAGAAGCAAAAGGC, 0.00356; in that of GAGACCGCAACTGAAAAGTTGTTATCGAAATGGATGGGTTTTTCTGCACGTAGAAGCAAAAGGC, 0.00147.
In the case of GAGACCGCAACTGAAAAGTTGTTATAGAAATATGGGTTGATTTCTGCACGTAGAAGCAAAAGGC it was 0.013; in that of GAGACCGCAACTGAAAAGTTGTTATCAGAATATGGTTGAATTTCTGCACGTAGAAGCAAAAGGC, 0.00433.
In the case of GAGACCGCAACTGAAAAGTTGTTTCAGAATGATGGTTGAATTTCTGCACGTAGAAGCAAAAGGC it was 0.00169.
In the case of GAGACCGCAACTGAAAAGTTGTTACAATGGATGGGTTGAATTTCTGCACGTAGAAGCAAAAGGC, the fraction ligated was determined as 0.00369.
The same measure for GAGACCGCAACTGAAAAGTTGTTACAAAATGGAGGGTTAATTTCTGCACGTAGAAGCAAAAGGC: 0.00362; for GAGACCGCAACTGAAAAGTTGTTCAGAATGATGGGTTGAATTTCTGCACGTAGAAGCAAAAGGC: 0.00205.
GAGACCGCAACTGAAAAGTTGTTCAGAAGGATGGGTTGAATTTCTGCACGTAGAAGCAAAAGGC: the fraction ligated came to 0.00315.
In the case of GAGACCGCAACTGAAAAGTTGTTATCAAAATATGGGTTGATTTCTGCACGTAGAAGCAAAAGGC it was 0.00446; in that of GAGACCGCAACTGAAAAGTTGTTAAGAAAGGAGGGTTGAATTTCTGCACGTAGAAGCAAAAGGC, 0.00337.

These data come from the supplement of paper PMC6755084.
